Measurements taken from patent US20140087995A1 (published 2014).
Numbered stars: 1 amine (or outer) side, 2 acyl side, 3 side chain; on linkers, the order of the positions; unused ones are H or OH. Bridge positions count the residues as written; N and C are the ends. Side chains are listed from the residue outwards. Ends that are not written are not given here. * marks the point of attachment. C20 diacid = O=C(O)CCCCCCCCCCCCCCCCCCC(=O)*; γGlu = O=C(O)[C@H](CCC(=O)[*:2])N[*:1]

T1: rat amylin receptor (rat calcitonin receptor + rat RAMP 3) (rat, UniProt P32214 25-516; Q9JJ73 23-147)
T1 construct: whole, on cells; Membranes prepared from transiently transfected BHK tk'ts 13 cells; also called rAmylin-R; rat amylin 3(a) receptor
T1 sequence (looked up) 1: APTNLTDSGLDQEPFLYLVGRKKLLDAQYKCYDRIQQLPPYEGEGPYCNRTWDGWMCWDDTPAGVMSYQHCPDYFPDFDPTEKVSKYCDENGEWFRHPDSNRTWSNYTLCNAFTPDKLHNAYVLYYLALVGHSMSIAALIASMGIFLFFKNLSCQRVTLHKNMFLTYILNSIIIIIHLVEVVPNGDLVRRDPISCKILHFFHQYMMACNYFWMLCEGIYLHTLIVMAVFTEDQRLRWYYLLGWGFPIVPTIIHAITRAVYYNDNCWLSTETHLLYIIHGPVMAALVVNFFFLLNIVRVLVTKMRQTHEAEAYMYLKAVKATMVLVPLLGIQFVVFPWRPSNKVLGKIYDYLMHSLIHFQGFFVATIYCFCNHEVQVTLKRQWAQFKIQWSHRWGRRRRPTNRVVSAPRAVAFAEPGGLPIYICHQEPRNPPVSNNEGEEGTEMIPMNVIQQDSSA
T1 sequence (looked up) 2: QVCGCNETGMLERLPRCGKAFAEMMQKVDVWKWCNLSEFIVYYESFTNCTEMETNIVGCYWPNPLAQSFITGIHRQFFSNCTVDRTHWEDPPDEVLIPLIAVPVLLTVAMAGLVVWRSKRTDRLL

T2: rat calcitonin receptor (rat, UniProt P32214 25-516)
T2 construct: whole, on cells; Membranes prepared from transiently transfected BHK tk'ts 13 cells; also called rCTR; rat calcitonin (a) receptor
T2 sequence (looked up): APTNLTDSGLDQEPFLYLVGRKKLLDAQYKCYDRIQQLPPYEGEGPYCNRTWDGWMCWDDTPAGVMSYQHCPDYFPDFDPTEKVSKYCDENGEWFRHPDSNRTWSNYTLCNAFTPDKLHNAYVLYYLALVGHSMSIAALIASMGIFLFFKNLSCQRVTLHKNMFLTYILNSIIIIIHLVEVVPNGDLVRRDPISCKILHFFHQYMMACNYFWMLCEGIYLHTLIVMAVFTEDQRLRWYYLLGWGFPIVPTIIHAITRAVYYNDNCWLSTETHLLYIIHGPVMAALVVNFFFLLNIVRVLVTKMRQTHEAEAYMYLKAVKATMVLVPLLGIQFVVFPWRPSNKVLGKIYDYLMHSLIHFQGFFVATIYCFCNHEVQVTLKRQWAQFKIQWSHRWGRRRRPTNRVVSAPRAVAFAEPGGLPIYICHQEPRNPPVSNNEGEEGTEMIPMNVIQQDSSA

T3: human calcitonin receptor (human, UniProt P30988 25-474)
T3 construct: whole, on cells; Membranes from stably transfected BHK cells; also called hCTR; hCT
T3 sequence (looked up): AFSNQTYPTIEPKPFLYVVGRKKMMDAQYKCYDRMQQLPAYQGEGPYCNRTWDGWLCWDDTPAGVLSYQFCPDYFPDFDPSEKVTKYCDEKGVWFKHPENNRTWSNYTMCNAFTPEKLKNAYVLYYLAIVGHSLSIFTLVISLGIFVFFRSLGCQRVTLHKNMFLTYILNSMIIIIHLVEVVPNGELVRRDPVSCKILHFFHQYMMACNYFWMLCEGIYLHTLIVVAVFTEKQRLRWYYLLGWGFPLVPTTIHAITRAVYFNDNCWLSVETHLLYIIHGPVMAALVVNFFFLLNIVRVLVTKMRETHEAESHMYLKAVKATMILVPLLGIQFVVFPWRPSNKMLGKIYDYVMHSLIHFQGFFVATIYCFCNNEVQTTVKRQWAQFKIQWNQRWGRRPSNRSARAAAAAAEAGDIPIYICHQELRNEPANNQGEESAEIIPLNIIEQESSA


Experiments:
[1] = target: T1, rat amylin receptor (rat calcitonin …); experiment: SPA competition vs 125I-rat amylin, membranes (Assay VI)
rat calcitonin receptor [2] = target: T2, rat calcitonin receptor; experiment: SPA competition vs 125I-calcitonin, membranes (Assay VIII)
rat calcitonin receptor [3] = target: T2, rat calcitonin receptor; experiment: ratio of IC50 on rat calcitonin receptor to IC50 on rat amylin receptor
[4] = target: T3, human calcitonin receptor; experiment: ratio of IC50 on human calcitonin receptor to IC50 on human amylin receptor
In short: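 Competition binding by SPA uses membrane preparations (35 ng/μL final) in pH 7.4 Hepes buffer with 1 mM CaCl2 and 5 mM MgCl₂. Incubation lasts 120 min at 25° C, and IC₅₀ comes from one-site fitting.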

Binder	IC50 [1]	IC50 (rat calcitonin receptor [2])	Ratio rCT/rAmylin binding (rat calcitonin receptor [3])	Ratio hCT/hAmylin binding [4]
{C20 diacid-γGlu}-GRCNTATCATQRLAAFLRHSSPNFGAIPSSTNVGHNTY-NH2 (disulfide 3-8; SMILES CC[C@H](C)[C@H](NC(=O)[C@H](C)NC(=O)CNC(=O)[C@H](Cc1ccccc1)NC(=O)[C@H](CC(N)=O)NC(=O)[C@@H]1CCCN1C(=O)[C@H](CO)NC(=O)[C@H](CO)NC(=O)[C@H](Cc1c[nH]cn1)NC(=O)[C@H](CCCNC(=N)N)NC(=O)[C@H](CC(C)C)NC(=O)[C@H](Cc1ccccc1)NC(=O)[C@H](C)NC(=O)[C@H](C)NC(=O)[C@H](CC(C)C)NC(=O)[C@H](CCCNC(=N)N)NC(=O)[C@H](CCC(N)=O)NC(=O)[C@@H](NC(=O)[C@H](C)NC(=O)[C@@H]1CSSC[C@H](NC(=O)[C@H](CCCNC(=N)N)NC(=O)CNC(=O)CC[C@H](NC(=O)CCCCCCCCCCCCCCCCCCC(=O)O)C(=O)O)C(=O)N[C@@H](CC(N)=O)C(=O)N[C@@H]([C@@H](C)O)C(=O)N[C@@H](C)C(=O)N[C@@H]([C@@H](C)O)C(=O)N1)[C@@H](C)O)C(=O)N1CCC[C@H]1C(=O)N[C@@H](CO)C(=O)N[C@@H](CO)C(=O)N[C@H](C(=O)N[C@@H](CC(N)=O)C(=O)N[C@H](C(=O)NCC(=O)N[C@@H](Cc1c[nH]cn1)C(=O)N[C@@H](CC(N)=O)C(=O)N[C@H](C(=O)N[C@@H](Cc1ccc(O)cc1)C(N)=O)[C@@H](C)O)C(C)C)[C@@H](C)O)	8.07 nM	492 nM	60.9	68.6
{C20 diacid-γGlu}-GRCNTATCATQRLAAFLRHSSPNFGAIPSSTNVGPNTY-NH2 (disulfide 3-8)	0.436 nM	56.3 nM	129	26.5

Second part, the binder after the results:

IC50 [1]	IC50 (rat calcitonin receptor [2])	Ratio rCT/rAmylin binding (rat calcitonin receptor [3])	Ratio hCT/hAmylin binding [4]	Binder
0.164 nM	10.4 nM	63.2	13.3	K([γGlu-C20 diacid])CNTATCATQRLAEFLRHSSPNFGAIPSSTNVGPETY-NH2 (disulfide 2-7; N-terminus assumed; SMILES CC[C@H](C)[C@H](NC(=O)[C@H](C)NC(=O)CNC(=O)[C@H](Cc1ccccc1)NC(=O)[C@H](CC(N)=O)NC(=O)[C@@H]1CCCN1C(=O)[C@H](CO)NC(=O)[C@H](CO)NC(=O)[C@H](Cc1c[nH]cn1)NC(=O)[C@H](CCCNC(=N)N)NC(=O)[C@H](CC(C)C)NC(=O)[C@H](Cc1ccccc1)NC(=O)[C@H](CCC(=O)O)NC(=O)[C@H](C)NC(=O)[C@H](CC(C)C)NC(=O)[C@H](CCCNC(=N)N)NC(=O)[C@H](CCC(N)=O)NC(=O)[C@@H](NC(=O)[C@H](C)NC(=O)[C@@H]1CSSC[C@H](NC(=O)[C@@H](N)CCCCNC(=O)CC[C@H](NC(=O)CCCCCCCCCCCCCCCCCCC(=O)O)C(=O)O)C(=O)N[C@@H](CC(N)=O)C(=O)N[C@@H]([C@@H](C)O)C(=O)N[C@@H](C)C(=O)N[C@@H]([C@@H](C)O)C(=O)N1)[C@@H](C)O)C(=O)N1CCC[C@H]1C(=O)N[C@@H](CO)C(=O)N[C@@H](CO)C(=O)N[C@H](C(=O)N[C@@H](CC(N)=O)C(=O)N[C@H](C(=O)NCC(=O)N1CCC[C@H]1C(=O)N[C@@H](CCC(=O)O)C(=O)N[C@H](C(=O)N[C@@H](Cc1ccc(O)cc1)C(N)=O)[C@@H](C)O)C(C)C)[C@@H](C)O)
2.7 nM	216 nM	79.8	100	{C20 diacid-γGlu}-GRCNTATCATQRLAHFLRHSSPNFGAIPSSTNVGSNTY-NH2 (disulfide 3-8; SMILES CC[C@H](C)[C@H](NC(=O)[C@H](C)NC(=O)CNC(=O)[C@H](Cc1ccccc1)NC(=O)[C@H](CC(N)=O)NC(=O)[C@@H]1CCCN1C(=O)[C@H](CO)NC(=O)[C@H](CO)NC(=O)[C@H](Cc1c[nH]cn1)NC(=O)[C@H](CCCNC(=N)N)NC(=O)[C@H](CC(C)C)NC(=O)[C@H](Cc1ccccc1)NC(=O)[C@H](Cc1c[nH]cn1)NC(=O)[C@H](C)NC(=O)[C@H](CC(C)C)NC(=O)[C@H](CCCNC(=N)N)NC(=O)[C@H](CCC(N)=O)NC(=O)[C@@H](NC(=O)[C@H](C)NC(=O)[C@@H]1CSSC[C@H](NC(=O)[C@H](CCCNC(=N)N)NC(=O)CNC(=O)CC[C@H](NC(=O)CCCCCCCCCCCCCCCCCCC(=O)O)C(=O)O)C(=O)N[C@@H](CC(N)=O)C(=O)N[C@@H]([C@@H](C)O)C(=O)N[C@@H](C)C(=O)N[C@@H]([C@@H](C)O)C(=O)N1)[C@@H](C)O)C(=O)N1CCC[C@H]1C(=O)N[C@@H](CO)C(=O)N[C@@H](CO)C(=O)N[C@H](C(=O)N[C@@H](CC(N)=O)C(=O)N[C@H](C(=O)NCC(=O)N[C@@H](CO)C(=O)N[C@@H](CC(N)=O)C(=O)N[C@H](C(=O)N[C@@H](Cc1ccc(O)cc1)C(N)=O)[C@@H](C)O)C(C)C)[C@@H](C)O, also called compound 99)
0.674 nM	65.9 nM	97.7	36.2	{C20 diacid-γGlu}-GRCNTATCATQRLAHFLRHSSPNFGAIPSSTNVGPNTY-NH2 (disulfide 3-8; SMILES CC[C@H](C)[C@H](NC(=O)[C@H](C)NC(=O)CNC(=O)[C@H](Cc1ccccc1)NC(=O)[C@H](CC(N)=O)NC(=O)[C@@H]1CCCN1C(=O)[C@H](CO)NC(=O)[C@H](CO)NC(=O)[C@H](Cc1c[nH]cn1)NC(=O)[C@H](CCCNC(=N)N)NC(=O)[C@H](CC(C)C)NC(=O)[C@H](Cc1ccccc1)NC(=O)[C@H](Cc1c[nH]cn1)NC(=O)[C@H](C)NC(=O)[C@H](CC(C)C)NC(=O)[C@H](CCCNC(=N)N)NC(=O)[C@H](CCC(N)=O)NC(=O)[C@@H](NC(=O)[C@H](C)NC(=O)[C@@H]1CSSC[C@H](NC(=O)[C@H](CCCNC(=N)N)NC(=O)CNC(=O)CC[C@H](NC(=O)CCCCCCCCCCCCCCCCCCC(=O)O)C(=O)O)C(=O)N[C@@H](CC(N)=O)C(=O)N[C@@H]([C@@H](C)O)C(=O)N[C@@H](C)C(=O)N[C@@H]([C@@H](C)O)C(=O)N1)[C@@H](C)O)C(=O)N1CCC[C@H]1C(=O)N[C@@H](CO)C(=O)N[C@@H](CO)C(=O)N[C@H](C(=O)N[C@@H](CC(N)=O)C(=O)N[C@H](C(=O)NCC(=O)N1CCC[C@H]1C(=O)N[C@@H](CC(N)=O)C(=O)N[C@H](C(=O)N[C@@H](Cc1ccc(O)cc1)C(N)=O)[C@@H](C)O)C(C)C)[C@@H](C)O)
